B1: ALDH8A1 (parent)
chain: WSSRSPQERSRVLNQVADLLEQSL

Variants of: B1
Experiment: protein stability index of a GFP-peptide fusion (GPS, HEK-293T) (PSI 1-6); higher = more stable
Settings: c terminus: a fixed tail appended
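Further: lentivirally expressed fusions sorted by FACS into six bins by GFP to DsRed ratio, PSI derived from sequencing read proportions per bin multiplied by bin number.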

Variant	protein stability index
WSSRSPQERSRVLNQVWDLLEQSL [A17W]	2.33
WSSRSPQERSRVLNQVQDLLEQSL [A17Q]	2.5
WSSRSPQERSRVLNQVYDLLEQSL [A17Y]	2.15
WSSRSPQERSRVLNQVTDLLEQSL [A17T]	3.1
WSSRSPQERSRVLNQVRDLLEQSL [A17R]	1.9
WSSRSPQERSRVLNQVSDLLEQSL [A17S]	3.02
WSSRSPQERSRVLNQVVDLLEQSL [A17V]	2.69
WSSRSPQERSRVLNQVADLLSQSL [E21S]	2.27
WSSRSPQERSRVLNQVADLLNQSL [E21N]	2.52
WSSRSPQERSRVLNQVADLLCQSL [E21C]	2.47
WSSRSPQERSRVLNQVADLLWQSL [E21W]	1.58
WSSRSPQERSRVLNQVADLLTQSL [E21T]	2.33
WSSRSPQERSRVLNQVADLLIQSL [E21I]	2.09
WSSRSPQERSRVLNQVADLLAQSL [E21A]	2.13
WSSRSPQERSRVLNQVADLLRQSL [E21R]	2.26
WSSRSPQERSRVLNQVADLLYQSL [E21Y]	1.71
WSSRSPQERSRVLNQVADLLMQSL [E21M]	2
WSSRSPQERSRVLNQVADLLVQSL [E21V]	2.17
WSSRSPQERSRVLNQVADLLQQSL [E21Q]	2.38
WSSRSPQERSRVLNQVADLLKQSL [E21K]	1.61
WSSRSPQERSRVLNQVADLLFQSL [E21F]	2.47
WSSRSPQERSRVLNQVADLLDQSL [E21D]	2.58
WSSRSPQERSRVLNQVADLLGQSL [E21G]	2.24
WSSRSPQERSRVLNQVADLLLQSL [E21L]	2.11

Variant	protein stability index
WSSRSPQERSRVLNQVADLLPQSL [E21P]	3.24
WSSRSPQERSRVLNQVAQLLEQSL [D18Q]	1.59
WSSRSPQERSRVLNQVALLLEQSL [D18L]	1.86
WSSRSPQERSRVLNQVAFLLEQSL [D18F]	1.48
WSSRSPQERSRVLNQVAVLLEQSL [D18V]	1.92
WSSRSPQERSRVLNQVACLLEQSL [D18C]	2.03
WSSRSPQERSRVLNQVARLLEQSL [D18R]	2.34
WSSRSPQERSRVLNQVAILLEQSL [D18I]	1.76
WSSRSPQERSRVLNQVAHLLEQSL [D18H]	2.2
WSSRSPQERSRVLNQVAYLLEQSL [D18Y]	1.81
WSSRSPQERSRVLNQVAPLLEQSL [D18P]	3.02
WSSRSPQERSRVLNQVAWLLEQSL [D18W]	1.37
WSSRSPQERSRVLNQVATLLEQSL [D18T]	2.02
WSSRSPQERSRVLNQVAGLLEQSL [D18G]	2.76
WSSRSPQERSRVLNQVASLLEQSL [D18S]	2.23
WSSRSPQERSRVLNQVAALLEQSL [D18A]	1.98
WSSRSPQERSRVLNQVANLLEQSL [D18N]	2.22
WSSRSPQERSRVLNQVAMLLEQSL [D18M]	2.17
WSSRSPQERSRVLNQVAKLLEQSL [D18K]	1.47
WSSRSPQERSRVLNQVADLLEDSL [Q22D]	3.63
WSSRSPQERSRVLNQVADLLENSL [Q22N]	2.61
WSSRSPQERSRVLNQVADLLEASL [Q22A]	2.22
WSSRSPQERSRVLNQVADLLEHSL [Q22H]	3.34
WSSRSPQERSRVLNQVADLLEKSL [Q22K]	2.27

Variant	protein stability index
WSSRSPQERSRVLNQVADLLEESL [Q22E]	2.88
WSSRSPQERSRVLNQVADLLEFSL [Q22F]	1.93
WSSRSPQERSRVLNQVADLLECSL [Q22C]	1.68
WSSRSPQERSRVLNQVADLLEPSL [Q22P]	3.31
WSSRSPQERSRVLNQVADLLELSL [Q22L]	1.65
WSSRSPQERSRVLNQVADLLEMSL [Q22M]	1.83
WSSRSPQERSRVLNQVADLLEGSL [Q22G]	2.98
WSSRSPQERSRVLNQVADLLEISL [Q22I]	2.01
WSSRSPQERSRVLNQVADLVEQSL [L20V]	3.03
WSSRSPQERSRVLNQVADLIEQSL [L20I]	2.28
WSSRSPQERSRVLNQVADLTEQSL [L20T]	4.08
WSSRSPQERSRVLNQVADLREQSL [L20R]	3.5
WSSRSPQERSRVLNQVADLDEQSL [L20D]	4.64
WSSRSPQERSRVLNQVADLPEQSL [L20P]	4.33
WSSRSPQERSRVLNQVADLWEQSL [L20W]	2.82
WSSRSPQERSRVLNQVADLAEQSL [L20A]	3.59
WSSRSPQERSRVLNQVADLKEQSL [L20K]	4.64
WSSRSPQERSRVLNQVADLSEQSL [L20S]	3.96
WSSRSPQERSRVLNQVADLEEQSL [L20E]	4.43
WSSRSPQERSRVLNQVADLMEQSL [L20M]	3.44
WSSRSPQERSRVLNQVADLNEQSL [L20N]	4.14
WSSRSPQERSRVLNQVADLQEQSL [L20Q]	3.68
WSSRSPQERSRVLNQVADLHEQSL [L20H]	3.86
WSSRSPQERSRVLNQVADLCEQSL [L20C]	3.45

Variant	protein stability index
WSSRSPQERSRVLNQVADLYEQSL [L20Y]	3.37
WSSRSPQERSRVLNQVADLGEQSL [L20G]	3.64
WSSRSPQERSRVLNQVADLFEQSL [L20F]	2.75
WSSRSPQERSRVLNQVADKLEQSL [L19K]	3.79
WSSRSPQERSRVLNQVADQLEQSL [L19Q]	4.19
WSSRSPQERSRVLNQVADCLEQSL [L19C]	3.14
WSSRSPQERSRVLNQVADVLEQSL [L19V]	3.07
WSSRSPQERSRVLNQVADSLEQSL [L19S]	4.14
WSSRSPQERSRVLNQVADELEQSL [L19E]	4.4
WSSRSPQERSRVLNQVADYLEQSL [L19Y]	3.15
WSSRSPQERSRVLNQVADRLEQSL [L19R]	3.98
WSSRSPQERSRVLNQVADTLEQSL [L19T]	3.74
WSSRSPQERSRVLNQVADALEQSL [L19A]	3.18
WSSRSPQERSRVLNQVADDLEQSL [L19D]	3.72
WSSRSPQERSRVLNQVADHLEQSL [L19H]	3.97
WSSRSPQERSRVLNQVADPLEQSL [L19P]	4.63
WSSRSPQERSRVLNQVADFLEQSL [L19F]	2.23
WSSRSPQERSRVLNQVADMLEQSL [L19M]	2.52
WSSRSPQERSRVLNQVADNLEQSL [L19N]	4.23
WSSRSPQERSRVLNQVADGLEQSL [L19G]	4.16
WSSRSPQERSRVLNQVADILEQSL [L19I]	2.31
WSSRSPQERSRVLNQVADWLEQSL [L19W]	2.24

— the supplement of paper PMC10567573
